The target in this assay is biotinylated histone H3K27me3 (21-44) peptide (UniProt P68431). Put plainly: ELISA. On the technique in general: In an ELISA, binding on a coated surface is turned into a signal by an enzyme label.

Take “Pcαα fusion protein (tandem human CBX8 PCDs, mCherry, VP64) (from UniProt Q9HC52 1-62; Q9HC52 1-62) (designed binder)”: the HRP ELISA signal:background ratio (H3K27me3 over unmodified H3) came out at 6.

For the origin of these results see paper PMC6370554.
